For assay [1], the target named is T1, CA125 on the cell surface of OVCAR-3 or YOU cells (human, UniProt Q8WXI7 1-14507, heavily glycosylated with O-linked and N-linked oligosaccharides).
T1 construct: whole, on cells; also called MUC16; human CA125
Put plainly: flow cytometry on OVCAR-3 cells, FULL set to 100%. The protocol: FIGS. 6A-B. Binding of truncated mutants and alanine mutants to CA125 on the cell surface of OVCAR-3 cells. A. OVCAR-3 ovarian cancer cells were incubated with full-length extracellular domain of mesothelin (FULL), Region I, IAB or IBC. The binding was visualized with a goat anti-rabbit IgG PE-conjugated secondary antibody by flow cytometry (gray line). Light gray shaded plot: secondary antibody only. B. A fluorescence intensity (geometrical mean) was used to quantitatively measure the CA125 binding. In each experiment, the binding of the full-length mature form of mesothelin (FULL) to CA125 was determined as 100% of binding. The secondary antibody only was used as a negative (0%) control.
(§1) Flow cytometry—To determine binding of mesothelin fragments to CA125 on the cell surface, OVCAR-3 or YOU cells were grown until confluent, detached, and then incubated with 1 μg/mL of mesothelin or its fragments in FACS buffer (5% BSA, 0.01% NaN₃) for 1 h on ice. Bound fragments were detected by incubating with a 1:200 dilution of Goat anti-Rabbit IgG-PE (Biosource) secondary antibody in FACS buffer for 0.5 h on ice. Cells were analyzed using FACSCalibur (BD Biosciences). Each binding experiment was repeated three to five times.
Cell binding assays by flow cytometry—To assess binding to CA125 on cancer cells, wild-type mesothelin and its mutants were incubated with cells. […]

Assay [2] concerns the target T1, CA125 on the cell surface of OVCAR-3 or …. Put plainly: flow cytometry on YOU cells, FULL set to 100%. The protocol: FIGS. 7A-B. Binding of truncated mutants and alanine mutants to CA125 on the cell surface of YOU cells. A. YOU mesothelioma cells were incubated with full-length extracellular domain of mesothelin (FULL) or a mutant of mesothelin. The binding was visualized with a goat anti-rabbit IgG PE-conjugated secondary antibody by flow cytometry (gray line). Light gray shaded plot: secondary antibody only. B. A mean fluorescence intensity (geometrical mean) was used to quantitatively measure the CA125 binding on YOU cells. In each experiment, the binding of the full-length mesothelin (FULL) to CA125 was determined as 100% of binding. The secondary antibody only was used as a negative (0%) control.
as §1

Assay [3] addresses T2, soluble CA125 in OVCAR-3 supernatant (human, UniProt Q8WXI7 1-14439, limits assumed, heavily glycosylated with O-linked and N-linked oligosaccharides).
T2 construct: Not purified: used as OVCAR-3 culture supernatant, detected with the anti-CA125 mAb OC125; also called MUC16; OVCAR-3 supernatant containing CA125
Kind of assay: sandwich ELISA, captured rFc fusion, OVCAR-3 supernatant, OC125 detection. How it is done:
(§2) Sandwich ELISA—Nunc MaxiSorp 96 well flat-bottomed plates were incubated overnight with 5 μg/mL, goat anti-rabbit IgG (Jackson ImmunoResearch Laboratories) in PBS, followed by an overnight block with 5% BSA, 0.01% NaN₃ in PBS. Purified Fc mesothelin fragments were diluted to 1 μg/mL in ELISA buffer (0.01% Tween 20, 10% Pierce SuperBlock) and incubated on plate for 1 h at room temperature (RT). Plates were then incubated with OVCAR-3 supernatant containing CA125 for 1 h at RT. To detect bound CA125 a 1:200 dilution of anti-CA125 OC125 mAb (Zymed) was incubated for an additional hour at RT; subsequently a 1:1500 dilution of goat anti-mouse IgG HRP conjugate (Biosource) was added for 1 h at RT. The plates were washed four times with ELISA buffer between each coating.
(§3) Kinetic studies by ELISA—To precisely characterize the interaction between CA125 and mesothelin and to determine a binding affinity (KD) for each mesothelin fragment, we used a quantitative ELISA-based assay. ELISA plates were coated with a goat anti-rabbit IgG antibody overnight for capturing the Fc mesothelin mutant fusion proteins. OVCAR-3 supernatant containing soluble CA125 was then added, followed by the OC125 mAb. Overall results from the ELISA were consistent with those seen in the Western blot overlay assays except for the E324A mutant of mesothelin (FIG. 5).
In general terms: ELISA stands for enzyme-linked immunosorbent assay.

The target of assay [4] is T2, soluble CA125 in OVCAR-3 supernatant. Kind of assay: sandwich ELISA, captured rFc fusion at various concentrations, OVCAR-3 supernatant, OC125 detection; nonlinear regression/Scatchard. The protocol: (§4) Scatchard plots (top left corner) were made. ELISA plates captured the Fc mesothelin mutant fusion proteins at various concentrations (x axis; see Experimental Procedures). OVCAR-3 supernatant containing soluble CA125 was then added, followed by the OC125 mAb and a goat anti-mouse IgG HRP.
as §2, §3

For assay [5] the target is unchanged. Kind of assay: sandwich ELISA; average KD told of three proteins. The protocol: as §4, §2
Kinetic studies by ELISA—To precisely characterize the interaction between CA125 and mesothelin and to determine a binding affinity (KD) for each mesothelin fragment, we used a quantitative ELISA-based assay. ELISA plates were coated with a goat anti-rabbit IgG antibody overnight for capturing the Fc mesothelin mutant fusion proteins. […]

Assay [6] has as its target CA125 on the cell surface of OVCAR-3 or YOU cells (human) (UniProt Q8WXI7). Kind of assay: cell-based or functional assay.
Assay [7] concerns the target soluble CA125 in OVCAR-3 supernatant (human) (UniProt Q8WXI7). Put plainly: sandwich ELISA, captured rFc fusion at various concentrations, OVCAR-3 supernatant, OC125 detection; nonlinear regression/Scatchard.
Assay [8] shares this target. Kind of assay: sandwich ELISA; average KD told of three proteins.
In assay [9] the target is T2, soluble CA125 in OVCAR-3 supernatant. Put plainly: Western blot overlay with OVCAR-3 supernatant, OC125 detection. How it is done: FIGS. 4A-B. Western blots of mesothelin fragments and alanine mutants. Each protein (500 ng) was run on an SDS-PAGE gel and transferred to a PVDF membrane. Membrane was blotted with OVCAR-3 supernatant containing CA125 followed by OC125 (anti-CA125 mAb).
Western blots—Purified Fc mesothelin fragments (500 ng) were mixed with Laemmli Sample Buffer (Biorad) supplemented with 5% B-Mercaptoethanol. Samples were boiled for 2 min and separated on 4-20% SDS-PAGE gels (Invitrogen). After transfer for 4 h at 30V, the PVDF membrane was blocked overnight at 4° C. in 1% Western Blocking Reagent (Roche) in Tris buffered saline (50 mM Tris-HCl, 150 mM NaCl). The membrane was then incubated with OVCAR-3 supernatant+0.5% blocking solution for 1 h at RT. This was followed by incubation with 1:200 dilution of OC125 mAb for 1 h at RT. Detection was performed with goat anti-mouse IgG-HRP conjugate (Biosource) 1:1000 for 1 h.
Background: In western blotting, separated proteins are transferred to a membrane and probed.

Ends that are not written are not given here.

B1: mesothelin Region IB (328-369) rabbit IgG Fc fusion protein (Fc fusion, not shown: a dimerising Fc or GST; small tags and cut ends)
chain: DAALLATQMDRVNAIPFTYEQLDVLKHKLDELYPQGYPESVI
modifications: also: fusion with rabbit IgG Fc, thrombin site with flexible linker, myc epitope (no letters given)
B1: in assay [1], the “CA125-binding activity relative to FULL” value is approximately 10%. In assay [2], the “binding activity relative to FULL” value was approximately 10%. For the same molecule, in [3], the binding result is on record as “no binding”.

B2: mesothelin Region IC (360-405) rabbit IgG Fc fusion protein (Fc fusion, not shown: a dimerising Fc or GST; small tags and cut ends)
chain: YPQGYPESVIQHLGYLFLKMSPEDIRKWNVTSLETLKALLEVNKGH
modifications: also: fusion with rabbit IgG Fc, thrombin site with flexible linker, myc epitope (no letters given)
Turning to B2, the binding result in assay [3] is “no binding”.

B3: mesothelin Region IAB (296-359) rabbit IgG Fc fusion protein (Fc fusion, not shown: a dimerising Fc or GST; small tags and cut ends)
chain: EVEKTACPSGKKAREIDESLIFYKKWELEACVDAALLATQMDRVNAIPFTYEQLDVLKHKLDEL
notes: also called Region IAB wild-type (wt)
Consider B3, for which the Kd (as a rule, the equilibrium constant for the complex coming apart) is 3.35 nM in assay [4] and approximately 3 nM in assay [5]. The “binding activity relative to FULL” value in assay [1] is approximately 90%.

B4: E324A alanine mutant of mesothelin Region IAB (296-359), rabbit IgG Fc fusion protein (Fc fusion, not shown: a dimerising Fc or GST; small tags and cut ends)
chain: EVEKTACPSGKKAREIDESLIFYKKWELAACVDAALLATQMDRVNAIPFTYEQLDVLKHKLDEL
notes: Alanine mutant within Region IAB
B4 registered a Kd in [4] of 42.4 nM.

B5: Y318A alanine mutant of mesothelin Region IAB (296-359), rabbit IgG Fc fusion protein (Fc fusion, not shown: a dimerising Fc or GST; small tags and cut ends)
chain: EVEKTACPSGKKAREIDESLIFAKKWELEACVDAALLATQMDRVNAIPFTYEQLDVLKHKLDEL
notes: as for B4
Consider B5, for which the binding result in assay [3] is reported as “no binding”.

B6: H354A alanine mutant of mesothelin Region IAB (296-359), rabbit IgG Fc fusion protein (Fc fusion, not shown: a dimerising Fc or GST; small tags and cut ends)
chain: EVEKTACPSGKKAREIDESLIFYKKWELEACVDAALLATQMDRVNAIPFTYEQLDVLKAKLDEL
notes: Alanine mutant within Region IAB; also called H354A mutant of IAB
For the molecule B6, the Kd in assay [4] worked out at 2.71 nM.

B7: W321A alanine mutant of mesothelin Region IAB (296-359), rabbit IgG Fc fusion protein (Fc fusion, not shown: a dimerising Fc or GST; small tags and cut ends)
chain: EVEKTACPSGKKAREIDESLIFYKKAELEACVDAALLATQMDRVNAIPFTYEQLDVLKHKLDEL
notes: as for B4
In turn, B7 returned a Kd in assay [4] of 19.5 nM.

B8: rabbit IgG Fc fusion of the full-length extracellular domain of mesothelin (296-581) (Fc fusion, part only; not given: rabbit Fc, linker, myc tag, not shown: a dimerising Fc or GST; small tags and cut ends)
chain (part 1 of 2), part: EVEKTACPSGKKAREIDESLIFYKKWELEACVDAALLATQMDRVNAIPFTYEQLDVLKHKLDELYPQGYPESVIQHLGYLFLKMSPEDIRKWNVTSLETLKALLEVNKGHEMSPQAPRRPLPQVATLIDRFVKGRGQLDKDTLDTLTAFYPGYLCSLSPEELSSVPPSSIWAVRPQDLDTCDPRQLDVLYPKARLAFQNMNGSEYFVKIQSFLGGAPTEDLKALSQQNVSMDLATFMKLRTDAVLPLTVAEVQKLLGPHVEGLKAEERHRPVRDWILRQRQDDLDT
chain (part 2 of 2), part: HHHHHH
For the molecule B8, in [6], the adhesion of fluorescently labeled mesothelin-expressing H9 cells onto a YOU monolayer is 1 µg/mL and the adhesion of fluorescently labeled mesothelin-expressing H9 cells onto an OVCAR3 monolayer was 10 µg/mL. The Kd in [7] came out at 1.54 nM. This molecule also displayed a Kd in assay [8] of 3 nM.

B9: mesothelin Region IA (296-337) rabbit IgG Fc fusion protein, rFc at the C-terminus (Fc fusion)
chain: EVEKTACPSGKKAREIDESLIFYKKWELEACVDAALLATQMD
notes: not shown: junction between fragment and rFc, and any tags, not described for this construct; rabbit IgG Fc (rFc)
As to B9, the binding result in assay [9] is “no binding (tested: 500 ng)”.

B10: mesothelin Region IBC (328-405) rabbit IgG Fc fusion protein (Fc fusion, not shown: a dimerising Fc or GST; small tags and cut ends)
chain: DAALLATQMDRVNAIPFTYEQLDVLKHKLDELYPQGYPESVIQHLGYLFLKMSPEDIRKWNVTSLETLKALLEVNKGH
Turning to B10, the binding result in assay [9] is “no binding (tested: 500 ng)”.

B11: mesothelin Region I (296-390) rabbit IgG Fc fusion protein (Fc fusion, not shown: a dimerising Fc or GST; small tags and cut ends)
chain: EVEKTACPSGKKAREIDESLIFYKKWELEACVDAALLATQMDRVNAIPFTYEQLDVLKHKLDELYPQGYPESVIQHLGYLFLKMSPEDIRKWNVT
Regarding B11, the Kd in assay [5] is approximately 3 nM. The “CA125 binding activity relative to FULL” value in assay [2] was approximately 40%.
